How the values were obtained:
Experiment in all cases: SPR (Biacore T200), TYRP1 ECD-Fc captured by anti-PGLALA antibody, 1:1 Langmuir fit
[1] = biological target: Human TYRP1 extracellular domain (ECD), monomeric fusion to human Fc domain with knob-into-hole and PG LALA modifications and C-terminal Avi-tag (human) [IgG part: P01857]
[2] = biological target: Cynomolgus TYRP1 extracellular domain (ECD), monomeric fusion to human Fc domain with knob-into-hole and PG LALA modifications and C-terminal Avi-tag (cynomolgus monkey) [IgG part: P01857]
[3] = biological target: Mouse TYRP1 extracellular domain (ECD), monomeric fusion to human Fc domain with knob-into-hole and PG LALA modifications and C-terminal Avi-tag (mouse) [IgG part: P01857]

親TA99抗体 (parental TYRP1 antibody TA99)
Kd [1]: 0.09 nM | Kd [2]: 0.12 nM | Kd [3]: 0.31 nM
